Here are results for two substances from patent US20230341394A1.

The test addresses CR3022 IgG antibody.

On to “anti-IgG Nanobody (Chromotek Nano-Secondary alpaca anti-human IgG) (VHH)”, for which the assay signal (TR-FRET ratio) (TR-FRET ratio) amounted to 0.6.

Turning to anti-IgG antibody (Bethyl, A80-104A), the assay signal (TR-FRET ratio) (TR-FRET ratio) worked out at 0.25.
